US20220088190A1 (University of Pennsylvania, published 2022)

Experiments:
[1] = target: T1, HLA-A*11:01 (human); assay: peptide-MHC binding, competitive fluorescence polarization assay
T1 construct: the construct is not described

[2] = target: T2, HLA-A*03:01 expressed on monoallelic K562 RAS TMG cells (human); assay: HLA class I immunoprecipitation, peptide elution and tandem MS/MS from monoallelic K562 RAS TMG cells (FIG. 8D)
T2 construct: also called K562-A*03:01

[3] = target: T3, HLA-A*11:01 expressed on monoallelic K562 RAS TMG cells (human); assay: HLA class I immunoprecipitation, peptide elution and tandem MS/MS from monoallelic K562 RAS TMG cells (FIG. 8I)
T3 construct: also called K562-A*11:01

[4] = target: T3, HLA-A*11:01 expressed on monoallelic …; assay: HLA class I immunoprecipitation, peptide elution and tandem MS/MS from monoallelic K562 RAS TMG cells (FIG. 8F)
[5] = target: T2, HLA-A*03:01 expressed on monoallelic …; assay: HLA class I immunoprecipitation, peptide elution and tandem MS/MS from monoallelic K562 RAS TMG cells (FIG. 8A)
[6] = target: T4, HLA-A*03:01 (human); assay: peptide-MHC binding, competitive fluorescence polarization assay
T4 construct: the construct is not described

[7] = target: T3, HLA-A*11:01 expressed on monoallelic …; assay: HLA class I immunoprecipitation, peptide elution and tandem MS/MS from monoallelic K562 RAS TMG cells (FIG. 8G)
[8] = target: T2, HLA-A*03:01 expressed on monoallelic …; assay: HLA class I immunoprecipitation, peptide elution and tandem MS/MS from monoallelic K562 RAS TMG cells (FIG. 8C)
[9] = target: T5, HLA-B*07:02 (human); assay: peptide-MHC binding, competitive fluorescence polarization assay
T5 construct: the construct is not described

[10] = target: T6, HLA-B*07:02 expressed on monoallelic K562 RAS TMG cells (human); assay: HLA class I immunoprecipitation, peptide elution and tandem MS/MS from monoallelic K562 RAS TMG cells (FIG. 8J)
T6 construct: also called K562-B*07:02

[11] = target: T3, HLA-A*11:01 expressed on monoallelic …; assay: HLA class I immunoprecipitation, peptide elution and tandem MS/MS from monoallelic K562 RAS TMG cells (FIG. 8E)

B1: mRAS peptide VV_R (RAS G12R), VVGARGVGK (peptide)
peptide: VVGARGVGK
notes: 9-mer mutant RAS short peptide; also called R-9
[1]
  binding result: binds
[2]
  binding result: binds
[3]
  binding result: binds

B2: mRAS peptide VVV_D (RAS G12D), VVVGADGVGK (peptide)
peptide: VVVGADGVGK
notes: 10-mer mutant RAS short peptide; also called D-10
[4]
  binding result: binds
[1]
  binding result: binds
[5]
  binding result: binds

B3: mRAS peptide VVV_V (RAS G12V), VVVGAVGVGK (peptide)
peptide: VVVGAVGVGK
notes: 10-mer mutant RAS short peptide; also called V-10
[1]
  binding result: binds
[6]
  binding result: binds
[7]
  binding result: binds
[8]
  binding result: binds

B4: mRAS peptide GA_R (RAS G12R), GARGVGKSAL (peptide)
peptide: GARGVGKSAL
notes: 10-mer mutant RAS short peptide; also called R-10 (B*07:02 panel)
[9]
  binding result: binds
[10]
  binding result: binds

B5: mRAS peptide VV_D (RAS G12D), VVGADGVGK (peptide)
peptide: VVGADGVGK
notes: 9-mer mutant RAS short peptide; also called D-9
[1]
  binding result: binds
[11]
  binding result: binds

B6: mRAS peptide VVV_R (RAS G12R), VVVGARGVGK (peptide)
peptide: VVVGARGVGK
notes: 10-mer mutant RAS short peptide; also called R-10
[1]
  binding result: binds
[6]
  binding result: binds

B7: mRAS peptide VV_C (RAS G12C), VVGACGVGK (peptide)
peptide: VVGACGVGK
notes: 9-mer mutant RAS short peptide; also called C-9
[1]
  binding result: binds
